As a reminder, the Kd is the concentration at which binding is half-saturated.

In assay [1] the target is Purified recombinant human apo-IDO1 (His6-IDO1), Alexafluor 647-labelled (human, UniProt P14902 1-403, Alexafluor 647 on Cys groups). Nature of the assay: fluorescence polarisation. A general note: Fluorescence polarisation rises when a labelled molecule tumbles more slowly, as on binding a larger partner.
The target of assay [2] is Purified recombinant human apo-TDO (GST-TDO), Alexafluor 647-labelled (human, UniProt P48775 1-406, Alexafluor 647 on Cys groups). Nature of the assay: fluorescence polarisation.
Chain of Purified recombinant human apo-TDO (GST-TDO), Alexafluor 647-labelled (P48775 whole entry): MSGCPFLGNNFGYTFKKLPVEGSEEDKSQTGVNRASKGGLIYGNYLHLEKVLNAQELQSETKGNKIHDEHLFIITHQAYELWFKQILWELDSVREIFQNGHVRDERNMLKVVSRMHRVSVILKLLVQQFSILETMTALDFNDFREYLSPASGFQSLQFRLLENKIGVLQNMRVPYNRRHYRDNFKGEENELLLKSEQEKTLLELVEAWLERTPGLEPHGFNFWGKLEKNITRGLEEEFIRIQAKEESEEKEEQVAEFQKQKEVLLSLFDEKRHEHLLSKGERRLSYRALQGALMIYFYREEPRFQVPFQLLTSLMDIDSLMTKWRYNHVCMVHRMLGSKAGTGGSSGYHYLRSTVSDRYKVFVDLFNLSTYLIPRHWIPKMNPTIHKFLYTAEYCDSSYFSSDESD

Chain of Purified recombinant human apo-IDO1 (His6-IDO1), Alexafluor 647-labelled (P14902 whole entry): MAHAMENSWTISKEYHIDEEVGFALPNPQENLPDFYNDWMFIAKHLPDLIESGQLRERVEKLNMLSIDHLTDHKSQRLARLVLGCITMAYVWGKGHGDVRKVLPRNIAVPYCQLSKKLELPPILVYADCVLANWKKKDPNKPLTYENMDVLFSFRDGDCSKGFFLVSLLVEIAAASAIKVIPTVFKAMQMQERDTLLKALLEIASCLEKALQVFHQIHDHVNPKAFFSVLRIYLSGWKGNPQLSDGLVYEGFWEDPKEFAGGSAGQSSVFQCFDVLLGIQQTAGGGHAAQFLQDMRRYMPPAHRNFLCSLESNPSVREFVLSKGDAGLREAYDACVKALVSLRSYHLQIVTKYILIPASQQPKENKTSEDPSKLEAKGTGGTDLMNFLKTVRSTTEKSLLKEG

B1: Purified GST-tagged human GAPDH (natural protein)
chain: not shown
On to B1, for which the values for the Kd in assay [1] and in assay [2] were 1500 ± 1300 nM and 1200 ± 400 nM, respectively.
